Assay results: the DeepSol protein solubility set

Assay: soluble on expression in E. coli; label from the status in PepcDB or PDB records

Row | Sequence | soluble on expression in E. coli
1 | SPNSQYLKTRILDIYTPEQRAGIEKSEDWRQFSRRMDTHFPKLMNELDSVYGNNEALLPMLEMLLAQAWQSYSQRNSSLKDIDIARENNPDWILSNKQVGGVCYVDLFAGDLKGLKDKIPYFQELGLTYLYLMPLFKCPEGKSDGGYAVSSYRDVNPALGTIGDLREVIAALHEAGISAVVDFIFNHTSNEHEWAQRCAAGDPLFDNFYYIFPDRRMPDQYDRTLREIFPDQHPGGFSQLEDGRWVWTTFNSFQWDLNYSNPWVFRAMAGEMLFLANLGVDILRMDAVAFIWKQMGTSCENLPQAHALIRAFNAVMRIAAPAVFFKSQAIVHPDQVVQYIGQDECQIGYNPLQMALLWNTLATREVNLLHQALTYRHNLPEHTAWVNYVRSHDDIGWTFADEDAAYLGISGYDHRQFLNRFFVNRFDGSFARGVPFQYNPSTGDCRVSGTAAALVGLAQDDPHAVDRIKLLYSIALSTGGLPLIYLGDEVGTLNDDDWSQDSNKSDDSRWAHRPRYNEALYAQRNDPSTAAGQIYQGLRHMIAVRQSNPRFDGGRLVTFNTNNKHIIGYIRNNALLAFGNFSEYPQTVTAHTLQAMPFKAHDLIGGKTVSLNQDLTLQPYQVMWLEIA | soluble
2 | SPYIPLMEFSCSHSHLVCLPAEWRTSCMPSSKMKEMSSLFPEDWYQFVLRQLECYHSEEKASNVLEEIAKDKVLKDFYVHTVMTCYFSLFGIDNMAPSPGHILRVYGGVLPWSVALDWLTEKPELFQLALKAFRYTLKLMIDKASLGPIEDFRELIKYLEEYERDWYIGLVSDEKWKEAILQEKPYLFSLGYDSNMGIYTGRVLSLQELLIQVGKLNPEAVRGQWANLSWELLYATNDDEERYSIQAHPLLLRNLTVQAAEPPLGYPIYSSKPLHIHLY | not soluble
3 | SQLPPGKPEIFKCRSPNKETFTCWWRPGTDGGLPTNYSLTYHREGETLMHECPDYITGGPNSCHFGKQYTSMWRTYIMMVNATNQMGSSFSDELYVDVTYIVQPDPPLELAVEVKQPEDRKPYLWIKWSPPTLIDLKTGWFTLLYEIRLKPEKAAEWEIHFAGQQTEFKILSLHPGQKYLVQVRCKPDHGYWSAWSPATFIQIPSDFTMND | soluble
4 | SQPVAITDGIYWVGAVDWNIRYFHGPAFSTHRGTTYNAYLIVDDKTALVDTVYEPFKEELIAKLKQIKDPVKLDYLVVNHTESDHAGAFPAIMELCPDAHVLCTQRAFDSLKAHYSHIDFNYTIVKTGTSVSLGKRSLTFIEAPMLHWPDSMFTYVPEEALLLPNDAFGQHIATSVRFDDQVDAGLIMDEAAKYYANILMPFSNLITKKLDEIQKINLAIKTIAPSHGIIWRKDPGRIIEAYARWAEGQGKAKAVIAYDTMWLSTEKMAHALMDGLVAGGCEVKLFKLSVSDRNDVIKEILDARAVLVGSPTINNDILPVVSPLLDDLVGLRPKNKVGLAFGAYGWGGGAQKILEERLKAAKIELIAEPGPTVQWVPRGEDLQRCYELGRKIAARIAD | soluble
5 | SQYSAQRDLRMSPGDTVELGGYHFLFDGAKHHEGPNYTSDKGSIHVSRDGKEIATLHPEKRLYTVQSSMMTEAGIDAGFTRDLYVALGEPLENGAWAVRVHVKPFVR | not soluble
6 | SRKVFVGGLPPDIDEDEITASFRRFGPLVVDWPHKAESKSYFPPKGYAFLLFQEESSVQALIDACLEEDGKLYLCVSSPTIKDKPVQIRPWNLSDSDFVMD | soluble
7 | SRQETGGNLMSEPLLIARTPDTELFLLPGMANRHGLITGATGTGKTVTLQKLAESLSEIGVPVFMADVKGDLTGIAQAGTASEKLLTRLKNIGVNDWQPHANPVVVWDIFGEKGHTVRATVSDLGPLLLARLLNLNDVQSGVLNIIFRIADDQGLLLLDFKDLRAITQYIGDNAKSFQNQYGNISSASVGAIQRGLLSLEQQGAAHFFGEPMLDIKDWMRTDANGKGVINILSAEKLYQMPKLYAASLLWMLSELYEQLPEAGDLEKPKLVFFFDEAHLLFNDAPQVLLDKIEQVIRLIRSKGVGVWFVSQNPSDIPDNVFGQLGNRVQHALRAFTPKDQKAVKTAAQTMRANPAFDTEKAIQELGTGEALISFLDAKGSPSVVERAMVIAPCSRMGPVTEDERNGLINHSPVYGKYEDEVDRESAYEMLQKGFQASTEQQNNPPVKGKEVAVDDGILGGLKDILFGTTGPRGGKKDGVVQTMAKSAARQVTNQIVRGMLGSLLGGRKR | not soluble
8 | SRSFRPLYRLIGWIDRFRVNEPVQELVMAKTDVTEFRKLSEAMLRTAHHNVEVFEQQKEFISHASHELQTPLAISRNKLEMLLQDPSLNEQQLEQIYKAIQSINHIVQLNKTLLLYSKIENHQFPEEESIDVNELLHNLAEEYEAIFANRRIRIVWSRSEPMVLSMNPTLAKVLLSNLLKNAYLHNLERDGEIHIDLTSMHCSIANTGVKNALDETLIFERFYHDMKQAHSSGLGLPIARSICQLYGLRLTYRFENGKHTFSIGKEA | not soluble
9 | SRSYRFSDYLHMSVSFSNDMDLFCGEDSGVFSGESTVDFSSSEVDSWPGDSIACFIEDERHFVPGHDYLSRFQTRSLDASAREDSVAWILKVQAYYNFQPLTAYLAVNYMDRFLYARRLPETSGWPMQLLAVACLSLAAKMEEILVPSLFDFQVAGVKYLFEAKTIKRMELLVLSVLDWRLRSVTPFDFISFFAYKIDPSGTFLGFFISHATEIILSNIKEASFLEYWPSSIAAAAILCVANELPSLSSVVNPHESPETWCDGLSKEKIVRCYRLMKAMAIENNRLNTPKVIAKLRVSVRASSTLTRPSDESSFSSSSPCKRRKLSGYSWVGDETSTSN | soluble
10 | SSFFGFGQTAEIDIVLNDAETRKKVEHKTEDGKKDKYFLFYDGETVSGKVNVTLKTPGKRLEHYGIKIEFVGQIELYYDRGNHHEFVSLVKDLARPGELSQSQTFDFELTHVEKPYESYTGQNVKLRYFLRATISRRLNDISKEMDIVVQTLCTYPEINSSIKMEVGIEDCLHIEFEYNKSKYHLRDVIVGKIYFLLVRIKIKHMEIDIIKRETTGTGPSVYHENDTIAKYEIMDGAPVRGESIPIRLFLAGYEMTPTMRDINKKFSVRYYLNLVLIDEEERRYFKQQEITLWRKGDIVRRSMSQQATIAAQRYEGSNPEPTSAQAKEETD | soluble
11 | SSLDDKPQFPGASAEFIDKLEFIQPNVISGIPIYRVMDRQGQIINPSEDPHLPKEKVLKLYKSMTLLNTMDRILYESQRQGRISFYMTNYGEEGTHVGSAAALDNTDLVFGQYREAGVLMYRDYPLELFMAQCYGNISDLGKGRQMPVHYGCKERHFVTISSPLATQIPQAVGAAYAAKRANANRVVICYFGEGAASEGDAHAGFNFAATLECPIIFFCRNNGYAISTPTSEQYRGDGIAARGPGYGIMSIRVDGNDVFAVYNATKEARRRAVAENQPFLIEAMTYAIGHASTSDDSSAYRSVDEVNYWDKQDHPISRLRHYLLSQGWWDEEQEKAWRKQSRRKVMEAFEQAERKPKPNPNLLFSDVYQEMPAQLRKQQESLARHLQTYGEHYPLDHFDK | soluble
12 | SSNAKIDQLSSDVQTLNAKVDQASNDANAARSDAQAAKDDAARANQRLDNMATKYR | soluble
13 | SSQQRPARKLPSLLLDPTEETVRRRCRDPINVEGLLPSKIRINLEDNVQYVSMRKALKVKRPRFDVSLVYLTRKFMDLVRSAPGGILDLNKVATKLGVRKRRVYDITNVLDGIDLVEKKSKNHIRWIGSDLSNFGAVPQQKKLQEELSDLSAMEDALDELIKDCAQQLFELTDDKENERLAYVTYQDIHSIQAFHEQIVIAVKAPAETRLDVPAPREDSITVHIRSTNGPIDVYLCEVEQGQTSNKRSEGVGTSSSESTHPEGPEEEENPQQSEELLEVSN | soluble
14 | SSSESEKDKERLIQAAKMFFFHVQDLASVINTLTELFSRSMNTQILLMAVRNNSYIKDFFEQMLKIFKEMQSVVDARHDKIQKESLCSKVAMAMCSVVQKSTNVEELHQSAKEVFKSAHTPVIISVLNSSNILGSLESSLSHLMKFPIMNLQLSDFYTEDTKEQSDVTTSERTRSPPGSSKTTMIDTLKKLQDVLKTEDSKNPTKSAADLLEQIVKAMGPILEILQKAIKTMEMNISVFKKASDK | soluble
15 | SSSSDESEVKEAPKEEAKADKPKVSAPAQRGSDFANIGPMYPLDPFTLNLLSDSGSRYVKCTIELEQNSELLKPELDKKVPVIRDIIIRTLTAKTFEEVSTQKGKERLKDELVGKINEILTDGFIKNVYFTDFVVS | not soluble
16 | SSTAGDGERGTVGQEDSAAARPFRFSPEPTLEDIRRLHAEFAAERDWEQFHQPRNLLLALVGEVGELAELFQWKSDTEPGPQAWPPKERAALQEELSDVLIYLVALAARCHVDLPQAVISKMDTNRQRYPVHLSRGSACKYTDLPRGTISENQAVGAGDPASELRDQAST | soluble
17 | SSTWLSEAEMIALAGLLQMSQGEQTPNCVASSLPSTSCPDPVSVSEDPGPSGDQSCSGTDT | soluble
18 | STEKEKMIAGELYRSADETLSRDRLRARQLIHRYNHSLAEEHTLRQQILADLFGQVTEAYIEPTFRCDYGYNIFLGNNFFANFDCVMLDVCPIRIGDNCMLAPGVHIYTATHPIDPVARNSGAELGKPVTIGNNVWIGGRAVINPGVTIGDNVVVASGAVVTKDVPDNVVVGGNPARIIKKL | soluble
19 | STLQPRCEDVETAEGVALTVTGVAQVKIMTEKELLAVACEQFLGKNVQDIKNVVLQTLEGHLRSILGTLTVEQIYQDRDQFAKLVREVAAPDVGRMGIEILSFTIKDVYDKVDYLSSLGKTQTAVVQRDADIGVAEAERDAGIREAECKKEMLDVKFMADTKIADSKRAFELQKSAFSEEVNIKTAEAQLAYELQGAREQQKIRQEEIEIEVVQRKKQIAVEAQEILRTDKELIATVRRPAEAEAHRIQQIAEGEKVKQVLLAQAEAEKIRKIGEAEAAVIEAMGKAEAERMKLKAEAYQKYGDAAKMALVLEALPQIAAKIAAPLTKVDEIVVLSGDNSKVTSEVNRLLAELPASVHALTGVDLSKIPLIKKATGVQV | not soluble
20 | STPETLPGHTKAKQPYREDTEWLKGQQIGLGAFSSCYQAQDVGTGTLMAVKQVTYVRNTSSEQEEVVEALREEIRMMSHLNHPNIIRMLGATCEKSNYNLFIEWMAGGSVAHLLSKYGAFKESVVINYTEQLLRGLSYLHENQIIHRDVKGANLLIDSTGQRLRIADFGAAARLASKGTGAGEFQGQLLGTIAFMAPEVLRGQQYGRSCDVWSVGCAIIEMACAKPPWNAEKHSNHLALIFKIASATTAPSIPSHLSPGLRDVALRCLELQPQDRPPSRELLKHPVFRTTW | soluble
21 | STQESTQCHRSYLLPSGNSVTLSESTAIVSHGTTGLVTWDAALYLAEWAIENPAAFTDRTILELGSGAGLTGLAICKACCPRAYIFSDCHAQVLEQLRGNVLLNGFSLEPHTPIDAGSSKVTVAQLDWDEVTASQLSAFQADVVIAADVLYCWEMTLSLVRVLKMLEDCQRKSAPDVYVAYTIRSQDTGKLFIEELDRAGIYWEEVPPHTGKLFPYEEHSAIVILKLVLTSRHGV | soluble
22 | SVADANGSSSSSFNFLIYGKTGWIGGLLGKLCEAQGITYTYGSGRLQDRQSIVADIESVKPSHVFNAAGVTGRPNVDWCESHKVETIRTNVAGTLTLADICREKGLVLINYATGCIFEYDSGHPLGSGIGFKEEDTPNFTGSFYSKTKAMVEELLKNYENVCTLRVRMPISSDLTNPRNFITKIARYEKVVDIPNSMTILDELLPISIEMAKRNLTGIYNFTNPGVVSHNEILEMYRDYIDPSFTWKNFTLEEQAKVIVAPRSNNELDATKLKTEFPELMSIKESLIKFVFEPNKKTEVKA | soluble
